The target in the assay is fluorescently labeled SpRpn12 (Schizosaccharomyces pombe) (UniProt P50524). Kind of assay: fluorescence polarisation. In general terms: Fluorescence polarisation rises when a labelled molecule tumbles more slowly, as on binding a larger partner.

In turn, NQFEYGVDPNLDVELALALELSMAEERARQEVAAQKSSEETEDKKMQE (domain or fragment) [SpRpn10 residues 196-243 (UIM-containing C-terminal sequence)] registered a Kd of 18 µM.

For orientation: Kd means the concentration at which binding is half-saturated. The low end stands for tighter binding, the high end for weaker binding.
